The results in this text go back to article PMC10289234, “Construction of an alpaca immune antibody library for the selection of nanobodies against Drosophila melanogaster proteins” (Frontiers in Bioengineering and Biotechnology, 2023).

Read-outs that look alike come from different tables or passages of the source.

In test [1] the target is Drosophila Myc, amino acids 1-400 (truncated Myc) (Drosophila melanogaster, strain not …, UniProt Q9W4S7).
In test [2] the target is T1, Drosophila CyclinE, amino acids 1-361 (truncated CyclinE) (Drosophila melanogaster (Fruit fly)., UniProt P54733).
T1 construct: CyclinE of Drosophila melanogaster, 709 aa, amino acids 1-361, PCR-amplified from cDNA and cloned into pET-28a-GFP-TEV; Vector pET-28a-GFP-TEV was built in the authors' laboratory; also called CycE; source: E. coli BL21 (DE3); not shown: GFP, N-terminal, cleaved
T1 sequence (P54733 1-361): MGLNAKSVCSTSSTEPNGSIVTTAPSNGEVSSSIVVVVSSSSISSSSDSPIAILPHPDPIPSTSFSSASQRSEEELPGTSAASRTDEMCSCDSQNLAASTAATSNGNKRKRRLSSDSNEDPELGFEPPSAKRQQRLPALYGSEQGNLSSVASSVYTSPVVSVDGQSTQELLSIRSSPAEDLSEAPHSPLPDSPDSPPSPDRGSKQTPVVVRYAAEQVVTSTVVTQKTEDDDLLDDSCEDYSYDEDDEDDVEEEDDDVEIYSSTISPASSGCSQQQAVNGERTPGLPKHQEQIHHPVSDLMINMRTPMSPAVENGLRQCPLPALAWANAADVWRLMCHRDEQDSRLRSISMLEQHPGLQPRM
Nature of the test: ELISA; colonies of the third-round sublibrary tested on a 96-well plate coated with CyclinE, blocked with 3% BSA; absorbance at 405 nm twofold over negative control wells counted as positive. As to conditions: one partner purified. A general note: An ELISA detects its analyte on a solid surface through an enzyme-linked reagent.

Test [3] concerns the target T2, Drosophila CG7544, full length (Drosophila melanogaster (Fruit fly)., UniProt Q7K3B9).
The target in test [4] is T2, Drosophila CG7544, full length. Nature of the test: ELISA; 96-well plate coated with 1 ug/well purified antigen, blocked with 3% BSA; 1 ug purified VHH for 2 h at RT; anti-Flag antibody, HRP anti-mouse, TMB, absorbance at 450 nm; negative controls without Flag antibody or VHH. As to conditions: both partners purified.

T2 sequence (Q7K3B9 whole entry): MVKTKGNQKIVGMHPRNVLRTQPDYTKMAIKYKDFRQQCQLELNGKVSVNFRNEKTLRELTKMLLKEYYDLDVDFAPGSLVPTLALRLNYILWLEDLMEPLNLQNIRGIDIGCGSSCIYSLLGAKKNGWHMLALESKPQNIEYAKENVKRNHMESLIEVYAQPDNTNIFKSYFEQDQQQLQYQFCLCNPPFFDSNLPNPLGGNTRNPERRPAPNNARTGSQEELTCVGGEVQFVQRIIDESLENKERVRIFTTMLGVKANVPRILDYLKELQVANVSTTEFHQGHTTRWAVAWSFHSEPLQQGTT
Sequence of Drosophila Myc, amino acids 1-400 (truncated Myc) (Q9W4S7 1-400): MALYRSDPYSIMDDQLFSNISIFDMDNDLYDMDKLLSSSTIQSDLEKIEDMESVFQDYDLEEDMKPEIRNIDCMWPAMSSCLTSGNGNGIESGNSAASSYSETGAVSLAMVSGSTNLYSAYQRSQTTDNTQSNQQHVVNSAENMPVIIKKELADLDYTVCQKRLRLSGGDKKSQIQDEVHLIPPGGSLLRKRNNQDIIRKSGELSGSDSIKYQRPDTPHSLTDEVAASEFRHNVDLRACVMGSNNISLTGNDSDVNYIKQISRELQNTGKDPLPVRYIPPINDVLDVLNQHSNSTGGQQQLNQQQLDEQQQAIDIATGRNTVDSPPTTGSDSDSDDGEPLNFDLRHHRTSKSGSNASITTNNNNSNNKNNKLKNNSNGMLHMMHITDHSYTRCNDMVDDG

B1: B12 (VHH)
VHH: DVQLQESGGGLVQPGGSLRLSCAASGFTFEAYTMSWVRQAPGKGLEWVSAISQGGATTAYADSVKGRFTISRDNAKSTLYLQMNNLKPEDTAVYYCAKWVFTPSVLGQGTQVTVSS
As for B1, in test [1], the binding result is reported as “binds”.

B2: N1, VHH of a colony from the third-round sublibrary of CyclinE (VHH)
VHH: DVQLQESGGGLVQAGGSLRLSCAASGGTFSRYSMGWFRQAPGKEREFVSAIGWSGYSTRYADSVKGRFTISRDNAKNTVYLQMNSLKPEDTAVYYCNAIVGVFIKRQYWGQGTQVTVSS
notes: The colony ELISA follows Fang et al., 2020; source: randomly selected colony from the third-round sublibrary of CyclinE (vhh in phage display vector pADL-10b), not purified
Turning to B2, the binding result in test [2] is listed as “binds”.

B3: C8 (VHH)
VHH: DVQLQESGGGLVQAGGSLRLSCAASGLTSSYYAIGWFRQAPGKDSEGVSCLDTTGNRINLSNSAKGRFTISRDNAKNTVYLQMNNLKPEDTAIYYCTVVLNSLCDSRWIGAFGSWGQGTQVTVSS
With B3, the binding result in test [3] is reported as “binds”.

B4: C9 (VHH)
VHH: DVQLQESGGTLVQPGGSLRLSCKASGFPFSDYHMSWVRQAPGKRPEWLSVITTSGDWTHYADSVKGRFAISRDNAKSTLYLQMNSLKPDDTAVYYCARGHYIILGQGTQVTVSS
For B4, the binding result in test [1] was “binds”.

B5: C4 (VHH)
VHH: DVQLQESGGGLVQPGGSLRLSCAASGFTFDSNAFGWFRQAPGKEREGVSCISARDSTTFYADAVKGRFTVSRDSAKNTVYLEMDSLKPEDTAVYYCATLYRATAQAMCAMSTLLGYWGQGTQVTVSS
Regarding B5, binding in test [3] was put at a Kd of 10.5 µM.

B6: C3, nanobody against CG7544 (Flag-Nb-His) (VHH)
VHH: DVQLQESGGGLVQAGGSLRLSCAASGNTLSTYGMGWFRQAPGKEREFVALINWGGTANYEDSVKGRFTISRDNVQNTMYLQMNNLKPEDTAVYYCFLGTYWGQGTWSPSPA
notes: not shown: Flag, N-terminal, kept
For the molecule B6, in test [4], the binding result is recorded as “binds”.

Usually Kd stands for the concentration at which binding is half-saturated. A low value points to tighter binding.
